# Data as given in the nanobody polyreactivity screen of Harvey et al. (2022).
# Experiment: yeast display, Sf9 membrane polyspecificity reagent, FACS + sequencing; frameworks hold sequencing errors
# In short: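 Sorting gates, low and high (top ~1%), were placed on anti-HA fluorescence to track expression and on streptavidin fluorescence to track reagent binding. A clone's polyreactivity label is taken from the gate it came out of. The reagent was 10% biotinylated, detergent-solubilized Sf9 membrane, applied for 1 hour at 4 °C to galactose-induced yeast display cells.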
row,Sequence,polyreactivity (PSR sort gate)
1,QVQLVESGGGLVQAGGSLRLSCAASGRNLRWYAMGWYRPAPGKERELVAAISTRSGSTYYADSVKGRFTISRDNAKNTVYLQMNSLKPEDTAVYYCAAQFWVKGQPQYGYLGQGTQVTVSS,high polyreactivity
2,QVQLVESGGGLVQAGGSLRLSCAASGRNLYYYAMGWYRQAPGKERELVAAITSGGSTYADSVKGRFTISRDNAKNTVYLQMNSLKPEDTAVYYCNARPVYGSRFYSAVRMEYWGQGTQVTVSS,low polyreactivity
3,QVQLVESGGGLVQAGGSLRLSCAASGRNSIYYALGWYRQAPGTDRELVAAITTTGSTKYADSVKGRFTISRDNAKKTVDLQMNSLKPEDTADYYCAARFSRWWVRYGYWGQATQVTVSS,high polyreactivity
4,QVQLVESGGGLVQAGGSLRLSCAASGRNYRYAMGWYRQAPGKEWALVAAISSGGRTNYADSVKGRFTISRDNAKNTVYLQMNSLKPEDTAVYYCAAEAPFYVKGRRYRGYDYWGQGTQVTVSS,high polyreactivity
5,QVQLVESGGGLVQAGGSLRLSCAASGRSFQDNAMGWYRQAPGKERELVAAISWRGGSTNYADSVKGRFTISRDNAKNTVYLQMNSLKPEDTAVYYCAKGIRRWYGGSDYWGQGTQVNVSS,low polyreactivity
6,QVQLVESGGGLVQAGGSLRLSCAASGRSFYVYAMGWYRQAPGMERELVATITRGGRTYYADSVKGRFTISRDNAKNTVYLQMNSLKPEDTAVSYCNDEDGSRRYRYEYWGHGTQVTVSS,high polyreactivity
7,QVQLVESGGGLVQAGGSLRLSCAASGRSFYYNAMGWYRQAPGKERELVAAIRSSGGTTYYADSVKGRFTISRDNAKNTVYLQMNSLKPEDTAVYYCAKDSNRYSYYSPYDSWGQGTQVTVSS,low polyreactivity
8,QVQLVESGGGLVQAGGSLRLSCAASGRSIYGYALGWYRQATRKERELVAAIHSGGSTYYADSVKGRFTISRDNAKNTVYLQKNSLKPEDTAVYYCAGYTAYRSRAYFYYWGQGTQVTVSS,high polyreactivity
9,QVQLVESGGGLVQAGGSLRLSCAASGRSLHHYAMGWYSQAPGKERELVAAIRWGGGSTYYADSVKGRFTISRDNAKNTVYLQMNSLNPEDPAVYSCAAEVVAGYDYSQYYYWGQGTQVTVST,low polyreactivity
10,QVQLVESGGGLVQAGGSLRLSCAASGRSLRGYAMGWYREAPGNEWVFVAAISSRGGSTYYADSVKGRLTLSRDNAKNTVYVQMNSLKPEDSAVYYCAAQWGRWYYGFNYRGQGTQVTVSS,high polyreactivity
11,QVQLVESGGGLVQAGGSLRLSCAASGRTAMGWYRHAPGKEREVVAAITGSGVSTYADSVKGRFTISRDNAKNTVYLQMNSLKPEDTAVYYCAADLPFVGGDYWGQGTQVYVSS,low polyreactivity
12,QVQLVESGGGLVQAGGSLRLSCAASGRTCAYNAMGWYRQAPGKERELVAAITDSDGNTYYADSVKGRFTISRDNAKNTVYLQMNSLKPEDTAVYYCAADYIILDHVTRGFGYEYWGQGTQVTVSS,low polyreactivity
13,QVQLVESGGGLVQAGGSLRLSCAASGRTCGSNVMGWYRQAPGKERELVAAISRSGGSTHYADSVKGRFTISRDKAKNSVYLQMKSLNPEDTAVYYCAARYSGGSAYGYGSLGQGTQVTVSS,high polyreactivity
14,QVQLVESGGGLVQAGGSLRLSCAASGRTCGYNAMGWYRQAPGKERELVAAISWSGTRSYYADSVKGRFTSSRDNAKNTVYLQMNSLKPEDTAVYYCAKRTLYGRTWSTSDYWGQGTQVTVSS,high polyreactivity
15,QVQLVESGGGLVQAGGSLRLSCAASGRTCKYYAMGWYRPAPGKEREEVAAINSGGITYYADSVKGRFTISRDNAKNTVYLQMNSLKPEDTAVYYCAKVWKIGVLRYPSYGYSYWGQGTQVTVSS,high polyreactivity
16,QVQLVESGGGLVQAGGSLRLSCAASGRTCYSYAMGWYRQAPGKVRALVAAITSSGSTNADSVKGRFTISRDNAKNTDYLQMNSLKPEDTAVYYCATRSYILGWRYDYWGQGTQVTVSS,high polyreactivity
17,QVQLVESGGGLVQAGGSLRLSCAASGRTCYYTMGWYRPAPGKDRELVAAITWSVDSTYYADSVKGRFTISRDNAKNTVYLHMNSLKPEVTAVYYCAVQPPPLNGLYDYWGQGTQVTVSS,low polyreactivity
18,QVQLVESGGGLVQAGGSLRLSCAASGRTDYRYAMGWYRQAPGKERELVAAISRSGGRTYYADSVKGRFTISRDNAKNTVYLQMNSQKPEDTAVYYCASRGLGSGPVVEGDYWGQGTQVTVSS,high polyreactivity
19,QVQLVESGGGLVQAGGSLRLSCAASGRTFAAYAMGWYRKAPGKEREFVADITYSGGSTTYADSVKGRFTISRDNAKNTVYLQMNSLKPEDTAVYDCIKLAYTRGWRGFVWYDYWGQGTQVTVSS,low polyreactivity
20,QVQLVESGGGLVQAGGSLRLSCAASGRTFADHTMGWYRQAPGKERELVARINSGSSTYYADSVKGRFTISRDNAKNTVYLQMNSLKPEDTAVYYCAARGSDYIRWYVGGRYGYWGQGTQVTVSS,low polyreactivity
21,QVQLVESGGGLVQAGGSLRLSCAASGRTFADYAMGWYRQAPGKERELVAAISWRGGSTYYADSVKGRFTISRDNAKNTVYLQMNSLKPEDTAVYYCNKAYPADYDYWGQGTQVTVSS,low polyreactivity
22,QVQLVESGGGLVQAGGSLRLSCAASGRTFAFYAMGWYRPAPGKERDLVASISSSGDRTYYADSVKGRFTISRDNAKNTVYLQMNSLKPEDTAVYYCNRVEGGAYGSNFDYWGQATQVTVSS,high polyreactivity

row,Sequence,polyreactivity (PSR sort gate)
1,QVQLVESGGGLVQAGGSLRLSCAASGRTFAFYTMGWYIQAPGKERELVAAITRTGSTSYADSVKGRFTISRDNAKNTVYLQMNSLKPEDTAVYFCASVGYPYTLWHQMDYWGQGTQVTVSS,low polyreactivity
2,QVQLVESGGGLVQAGGSLRLSCAASGRTFAGNAMGWYRPAPGTERELVADITRGGGSTYYADSVKGRFTISRDNAKNTVYLQMNSLKPEDTAVYYCAAATAFYYFISEYDYWGQGTQVTVSS,high polyreactivity
3,QVQLVESGGGLVQAGGSLRLSCAASGRTFAGNAMGWYRQAPGKERELVAAISQGGGSTYYADSVKGRFTISRDNAKNTVYLQMNSLKPEDTAVYYCAVDFRRYPGFDYWGQGTQVTVSS,low polyreactivity
4,QVQLVESGGGLVQAGGSLRLSCAASGRTFAGYAMGWYRQAPGKERELVAGISVDDSTTYYADSVKGRFTISRDNAKNTVYLQMNSLKPEDTAVYYCAAEREKTLYYLSRFDYWGQGTQVTVSS,low polyreactivity
5,QVQLVESGGGLVQAGGSLRLSCAASGRTFAGYAMGWYRQAPGKERELVAGITTSGGITYYADSVKGRFTISRDNAKNTVYLQMNSLKPEDTAVYYCNTGYYGRLRDDYWGQGTQVTVSS,high polyreactivity
6,QVQLVESGGGLVQAGGSLRLSCAASGRTFAIYVMGWYRQAPGKERELVAAISRGGSTYYADSVKGRFTISRDNAKNTVYLQMNSLKPEDTAVYYFAAGTGTTSRYYYWGQGTQVTVSS,high polyreactivity
7,QVQLVESGGGLVQAGGSLRLSCAASGRTFAIYVMGWYRQAPGKERELVAAITRVGSTYADSVKGRFTISRDNAKNTVYVQMNSLKPEDTAVYYCAAVSGVRSGPWRYDYWGQGTQVTVSS,high polyreactivity
8,QVQLVESGGGLVQAGGSLRLSCAASGRTFALNAMGWSRQAPGKERELVAAISWSSGRTYYADSVKGRFTISRDIAKNTVYLQMNSLKPEDTAVYYCAAYAQKRYYWGQGTQVTVSS,high polyreactivity
9,QVQLVESGGGLVQAGGSLRLSCAASGRTFALNAMGWYRQAPGKERELVADISYSGGSTYYADSVKGRFTISRDNAKNTVYLQMNSLKPEDTAVYYCAADSPWYVAYYYGYRVDYWGQGTQVTVSS,high polyreactivity
10,QVQLVESGGGLVQAGGSLRLSCAASGRTFALYAMGWYRQATGKERELVAAITWSGGSTYYADSVKGRFTISRDNAKNTVYLQMNSLKPEDTAVYYCAAQWPKSKYGYWGQGTQVTVSS,high polyreactivity
11,QVQLVESGGGLVQAGGSLRLSCAASGRTFANNVMGWYRQAPGKEREFVAAISRSGGITYYADSVKGRFTISRDNAKNTVYLQMNSLKPEDTAVYYCNAEWPFIYRLYRVQHGNDYWGQGTQVTVSS,low polyreactivity
12,QVQLVESGGGLVQAGGSLRLSCAASGRTFAPNAMGWYRQAPGKERELVAAISWSGTSTYYADSVKGRFTISRDNAKNTVYLQMNSLKPEDTAVYYCAPDLEGRVGSPWTYDYWGQGTQVTVSS,low polyreactivity
13,QVQLVESGGGLVQAGGSLRLSCAASGRTFAPYAMGWYRQAPGKERELVAAITYSGGSTYYADSVKGRFTISRDNAKNTVYLQMNSLKPEDTAVYYCAKVDSEYRQVIQQEDDYWGQGTQVTVSS,low polyreactivity
14,QVQLVESGGGLVQAGGSLRLSCAASGRTFAPYTMGWYRQAPGKERELVAAINFNGGGTYYADSVKGRFTISRDNAKNTVYLQMNSLKPEDTAVYYCYYLYNYWGQGTQVTVSS,low polyreactivity
15,QVQLVESGGGLVQAGGSLRLSCAASGRTFAQYTMGWYRQAPGKERELVAAISYRGSSTYYADSVKGRFTISRDNAKNTVYLQMNSLKPEDTAVYYCAVVYSIYTGGYDYWGQGTQVTVSS,high polyreactivity
16,QVQLVESGGGLVQAGGSLRLSCAASGRTFARNALGWYRQAPGKERELVAAITKGGGSTYYADSVKGRFTISRDNAKNTVYLQMNSLKPEDTAVYYCDAYKPSTRRYDYWGQGTQVTVSS,high polyreactivity
17,QVQLVESGGGLVQAGGSLRLSCAASGRTFARNAMGWYRQAPGKERELVASIRWRGGSTYYADSVKGRFTISRDNAKNTVYLQMNRLKPEDTAVYYCATRSPYYVGRGYISYDYWGQGTQVTVSS,high polyreactivity
18,QVQLVESGGGLVQAGGSLRLSCAASGRTFARNPMGWYRHAPGKERELVASIRWRGGSTYYADSVKGRFTISRDNAKNTVYLQMNRLKPEDTAVYYCATRYPYYVGRGYISYDYWGQGTQVTVSS,high polyreactivity
19,QVQLVESGGGLVQAGGSLRLSCAASGRTFASNAMGWYRQAPGKERELVAAISSSGGRTYYADSVKGRFTISRDNAKNTVYLQMNSLKPEDTAVYYCAKVGPVYKYDYWGQGTQVTVSS,high polyreactivity
20,QVQLVESGGGLVQAGGSLRLSCAASGRTFASYAMGWYRQAPAKDRELVAAITSGGSTKYADSVKGRFTISRDNAKNSVYFQMNSLTPEDTAVYYCWRYVFHLSNYYYWGQGTQVTVSS,high polyreactivity
21,QVQLVESGGGLVQAGGSLRLSCAASGRTFASYAMGWYRQAPGKERELVATIRSGDSTNYADSVKGRFTISRDNAKHTVYLQMNSLKPEDTAVYYCAADRDIFQQGANGAPYDYRGQGTQVTVSS,low polyreactivity
